Experimental findings from patent publication US20110097300A1 (SUNNYBROOK HEALTH SCIENCES CENTRE, published 2011) are described below.

The target in this experiment is T1, Tie 2 of EaHy926 endothelial cells (UniProt Q02763 23-1124, limits assumed).
T1 construct: whole, on cells; also called Tek
As to the kind of experiment: avidin agarose pull down from EaHy926 whole cell lysate, anti-Tie 2 immunoblot. Here is the method:
In this example, the ability of Vasculotide to bind the Tie 2 receptor, despite the engineered modifications, was tested using an in vitro pull down assay. In the pull down assay, a cell lysate of EaHy926 endothelial cells (which express high levels of Tie 2) was prepared in Phospho Lipase Cγ lysis buffer (50 mM Hepes buffer pH 7.5, 150 mM NaCl, 10% glycerol, 1% Triton X-100, 1.5 mM MgCl₂, 1.0 mM EGTA, 10 mM NaPPi, […], 2 mM Na₃VO₄, 1× aprotinin, 1× leupeptin and 1× PMSF). The whole cell lysate was mixed with either unclustered biotinylated Vasculotide or biotinylated irrelevant peptide. The biotinylated peptides then were isolated with avidin agarose and subsequently tested for their ability to precipitate Tie 2 via standard immunoblot analysis using anti-Tie 2 antibody.
(Immunoblotting shows a protein as a band on a membrane.)

Where no end group is shown, it is not given here. Maleimide‑PEO2‑Biotin = EZ-link-PEO-maleimide-biotin, biotinylated PEG-maleimide moiety (29 angstrom)

T1 sequence (Q02763 23-1124 limits assumed): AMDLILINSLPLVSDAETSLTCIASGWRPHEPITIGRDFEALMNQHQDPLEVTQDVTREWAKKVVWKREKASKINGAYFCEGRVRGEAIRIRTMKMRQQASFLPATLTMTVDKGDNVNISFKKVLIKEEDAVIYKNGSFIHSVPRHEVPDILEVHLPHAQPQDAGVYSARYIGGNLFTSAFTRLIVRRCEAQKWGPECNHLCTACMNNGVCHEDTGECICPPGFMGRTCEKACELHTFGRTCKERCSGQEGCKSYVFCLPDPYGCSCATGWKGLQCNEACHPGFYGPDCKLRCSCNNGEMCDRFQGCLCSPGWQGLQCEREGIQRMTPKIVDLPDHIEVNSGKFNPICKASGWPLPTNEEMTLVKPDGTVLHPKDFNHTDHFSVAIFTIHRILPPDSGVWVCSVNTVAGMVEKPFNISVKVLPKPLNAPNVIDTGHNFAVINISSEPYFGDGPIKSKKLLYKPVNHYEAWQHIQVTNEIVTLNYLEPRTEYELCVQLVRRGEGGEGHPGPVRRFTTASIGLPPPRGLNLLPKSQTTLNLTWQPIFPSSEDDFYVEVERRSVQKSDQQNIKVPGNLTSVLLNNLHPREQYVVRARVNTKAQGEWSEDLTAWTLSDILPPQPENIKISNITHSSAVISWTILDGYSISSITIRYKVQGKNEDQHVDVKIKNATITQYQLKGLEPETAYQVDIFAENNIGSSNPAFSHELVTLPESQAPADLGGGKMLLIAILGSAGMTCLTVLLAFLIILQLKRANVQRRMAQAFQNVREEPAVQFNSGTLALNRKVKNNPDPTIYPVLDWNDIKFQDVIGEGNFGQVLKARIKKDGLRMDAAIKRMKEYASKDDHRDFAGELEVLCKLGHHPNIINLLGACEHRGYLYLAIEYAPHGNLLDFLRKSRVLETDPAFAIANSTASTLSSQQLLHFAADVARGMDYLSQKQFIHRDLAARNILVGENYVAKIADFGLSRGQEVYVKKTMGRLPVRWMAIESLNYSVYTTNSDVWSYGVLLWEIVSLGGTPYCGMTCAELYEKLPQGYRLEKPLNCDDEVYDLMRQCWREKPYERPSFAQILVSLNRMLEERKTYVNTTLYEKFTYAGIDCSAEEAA

B1: unclustered Vasculotide (biotinylated T7 peptide-PEG monomer) (peptide)
peptide: C(Maleimide‑PEO2‑Biotin)HHHRHSF-OH
notes: L-amino acids; monomer, not clustered with avidin; also called T7-biotin; non-clustered Vasculotide
In the case of B1, the binding result was “binds”.
